Patent US20260116987A1 (Gilead, published 2026)
Positions count from the first letter of the chain named.

T1: Human CCR4 expressed on CHO-S cells (human, UniProt P51679 1-360)
T1 construct: whole, on cells; also called CCR4-expressing CHO-S cells
T1 sequence (looked up): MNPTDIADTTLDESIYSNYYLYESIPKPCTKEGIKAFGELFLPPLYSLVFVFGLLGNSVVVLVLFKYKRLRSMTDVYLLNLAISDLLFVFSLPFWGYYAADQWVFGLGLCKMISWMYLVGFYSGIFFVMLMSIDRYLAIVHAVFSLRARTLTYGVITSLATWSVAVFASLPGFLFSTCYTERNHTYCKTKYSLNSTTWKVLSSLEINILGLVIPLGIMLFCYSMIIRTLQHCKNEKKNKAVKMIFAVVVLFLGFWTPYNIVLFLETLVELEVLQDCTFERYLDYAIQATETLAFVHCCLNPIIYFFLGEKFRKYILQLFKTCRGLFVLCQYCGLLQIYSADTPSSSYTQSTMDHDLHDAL

B1: 19-O07 chimera (human IgG1) (antibody)
heavy: not shown
light: DVVMTQTPLTLSVTIGQPASISCKSSQSLLYSNGKTYLNWLLQRPGQSPKRLIYLVSKLDSGVPDRFTGSGSGTDFTLKISRVEAEDLGVYYCVQGTRFPWTFGGGTNLEIKRTVAAPSVFIFPPSDEQLKSGTASVVCLLNNFYPREAKVQWKVDNALQSGNSQESVTEQDSKDSTYSLSSTLTLSKADYEKHKVYACEVTHQGLSSPVTKSFNRGEC
notes: also called 19-007; 19-O07 chimeric antibody
B2: 13-E16 chimera (human IgG1) (antibody)
heavy: not shown
light: QIVLTQSPAIMSASPGEKVTITCSASSSVSYMHWFQQKPGTSPKLWIYSTSNLASGVPARFSGSGSGTSYFLTISRMEAEDAATYYCQQRSSYPYTFGGGTKLERKRTVAAPSVFIFPPSDEQLKSGTASVVCLLNNFYPREAKVQWKVDNALQSGNSQESVTEQDSKDSTYSLSSTLTLSKADYEKHKVYACEVTHQGLSSPVTKSFNRGEC
notes: also called 13-E16 chimeric antibody
B3: 6-B09 chimera (human IgG1) (antibody)
heavy: not shown
light: B2 light with S30I, S49A, F71S, Y95L, G99A, R105L
notes: also called 6-B09 chimeric antibody
B4: 1-K16 chimera (human IgG1) (antibody)
heavy: not shown
light: DIVMTQAAPSVPVTPGESVSISCRSSKSLLHSNGNTYLYWFLQRPGQSPQLLIYRMSNLASGVPDRFSGSGSGTAFTLRISRVEAEDVGVYYCMQHLEYPFTFGAGTKLELKRTVAAPSVFIFPPSDEQLKSGTASVVCLLNNFYPREAKVQWKVDNALQSGNSQESVTEQDSKDSTYSLSSTLTLSKADYEKHKVYACEVTHQGLSSPVTKSFNRGEC
notes: also called 1-K16 chimeric antibody
B5: 1-K17 chimera (human IgG1) (antibody)
heavy: not shown
light: DVVMTQTPLSLPVSLGDQASISCRSSQSLVHSNGNTYLYWYLQKPGQSPKLLIYKVSNRFSGVPDRFSGSGSGTDFTLKISRVEAEDLGVYFCSQSTHVPYTFGGGTKLEIKRTVAAPSVFIFPPSDEQLKSGTASVVCLLNNFYPREAKVQWKVDNALQSGNSQESVTEQDSKDSTYSLSSTLTLSKADYEKHKVYACEVTHQGLSSPVTKSFNRGEC
notes: also called 1-K17.hG1 Chimera
B6: 7B16-H1.001 (CDR H1 swapped mutant of 7-B16) (antibody, V domains shown)
VH: EVQLVESGGGLVQPKGSLKLSCAASGFTFSGSAMHWVRQAPGKGLEWVARIRSKSNNYATYYADSVKDRFTISRDDSQSMLYLQMNNLKTEDTAMYYCVRGLLRYRFFDVWGAGTTVTVSS
VL: DIVMTQAEPSVPVTPGESISISCRSSKSLLHSNGNTYLYWFLQRPGQSPQLLIYRMSNLASGVPDRFSGSGSGTAFTLRISRVEAEDVGVYYCMQHLEYPFTFGGGTKLEIKR
notes: also called CDR swapped variant H1

biological target: T1, Human CCR4 expressed on CHO-S cells; experiment: flow cytometry

Binder	binding result
B1	no binding
B2	no binding
B3	no binding
B4	no binding
B5	no binding

biological target: T2, Human CCR8 (C-C chemokine receptor type 8) expressed on CHO-S cells (human, UniProt P51685 1-355); experiment: cell-based or functional assay
T2 sequence (P51685 whole entry): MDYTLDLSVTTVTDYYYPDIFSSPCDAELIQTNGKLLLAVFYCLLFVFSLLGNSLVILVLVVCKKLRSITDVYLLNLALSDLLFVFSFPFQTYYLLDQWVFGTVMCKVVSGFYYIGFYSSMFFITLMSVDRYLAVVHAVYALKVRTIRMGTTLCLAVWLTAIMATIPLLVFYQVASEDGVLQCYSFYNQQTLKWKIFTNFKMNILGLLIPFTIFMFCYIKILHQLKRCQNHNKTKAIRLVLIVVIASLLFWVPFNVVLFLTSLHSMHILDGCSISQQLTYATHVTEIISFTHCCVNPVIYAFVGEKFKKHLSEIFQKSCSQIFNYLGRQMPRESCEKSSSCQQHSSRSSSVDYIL

Binder	IC50, antagonist activity in DiscoverX PathHunter beta-arrestin assay with 13.7 nM human CCL1 [µg/mL]
B1	995
B2	12.6
B4	4.55
B5	0.071

biological target: T2, Human CCR8 (C-C chemokine receptor type …); experiment: cell-based or functional assay; remark: another data set of the same source

Binder	EC50 of ADCC function (Promega ADCC reporter bioassay) [µg/mL]
B2	0.0549
B5	0.00618

biological target: T2, Human CCR8 (C-C chemokine receptor type …); experiment: KinExA, on-cell, human CCR8-expressing CHO-S cells
Method: (§1) Samples were gently rocked for 2.5 hours at 37° C. to achieve equilibrium.
(§2) To determine the rate of association (kₒₙ), the same immobilized biotinylated goat anti-human IgG-PMMA column was used as the capture reagent for kinetic experiments.
(§3) Data analysis was performed using KinExA Pro software at Sapidyne Instruments Inc to generate Kd and kₒₙ, The rate of dissociation (koff) was calculated based on the equation below.

Binder	Kd [nM]	kon [M⁻¹ s⁻¹]
B5	0.018	7.81e+06

biological target: T2, Human CCR8 (C-C chemokine receptor type …); experiment: flow cytometry on CHO cells expressing CCR8, EC50 column
Method: CCR8 binding was determined using flow cytometry according to the same methods used in Example 4, Briefly, antibodies were screened for specific binding to human CCR8 by flow cytometry using human CCR8-overexpressing and parental CHO—S cell line. Antibodies specifically binding to human CCR8 were also tested for binding to CCR4 by flow cytometry.

Binder	binding result
B6	no binding

biological target: T2, Human CCR8 (C-C chemokine receptor type …); experiment: KinExA, on-cell, human CCR8-expressing CHO-S cells; calculated from Kd and kon
Method: as §1, §2, §3

Binder	koff [s⁻¹]
B5	0.000144

biological target: T3, Human CCR8 on human CCR8-overexpression lipoparticles (human, UniProt P51685 1-355); experiment: sequential format ELISA on human CCR8-overexpression lipoparticles; competitor 1-K16
T3 sequence (P51685 whole entry): as above

Binder	ELISA epitope binning signal
B1	0.882
B3	0.8
B4	0.264
B5	0.036

biological target: T3, Human CCR8 on human CCR8-overexpression …; experiment: sequential format ELISA on human CCR8-overexpression lipoparticles; competitor 1-K17

Binder	ELISA epitope binning signal
B1	0.784
B3	0.82
B4	0.794
B5	0.124

biological target: T3, Human CCR8 on human CCR8-overexpression …; experiment: sequential format ELISA on human CCR8-overexpression lipoparticles; competitor 6-B09

Binder	ELISA epitope binning signal
B1	0.679
B3	0.512
B4	0.964
B5	0.651

biological target: T3, Human CCR8 on human CCR8-overexpression …; experiment: sequential format ELISA on human CCR8-overexpression lipoparticles; competitor 7-B16

Binder	ELISA epitope binning signal
B1	1.02
B3	0.776
B4	0.758
B5	0.047

biological target: T3, Human CCR8 on human CCR8-overexpression …; experiment: sequential format ELISA on human CCR8-overexpression lipoparticles; competitor 19-O07

Binder	ELISA epitope binning signal
B1	0.817
B3	0.577
B4	1.49
B5	0.268

biological target: T2, Human CCR8 (C-C chemokine receptor type …); experiment: flow cytometry epitope binning, tandem format, human CCR8-overexpressing cells; competitor 1-K16
Method: (§4) A subset of antibodies against human CCR8 were epitope binned using flow cytometry method in tandem format. Briefly, one set of antibodies was biotinylated. Human CCR8-overexpressing cells were incubated at 4° C., with the non-biotinylated antibodies at 10 μg/mL for 1 hour, then without washing the biotinylated antibodies were added at 10 μg/mL. After a further 1-hour incubation, cells were washed three times and then stained with streptavidin-phycoerythrin (PE-strep) secondary antibody for 30 minutes. Binding competition was determined by detecting PE by flow cytometry. The response values were normalized as the % of the maximum binding of the individual antibody.

Binder	% of the maximum binding [%]
B1	109
B3	102
B4	31
B5	12

biological target: T2, Human CCR8 (C-C chemokine receptor type …); experiment: flow cytometry epitope binning, tandem format, human CCR8-overexpressing cells; competitor 1-K17
Method: as §4

Binder	% of the maximum binding [%]
B1	91
B3	94
B4	32
B5	11

biological target: T2, Human CCR8 (C-C chemokine receptor type …); experiment: flow cytometry epitope binning, tandem format, human CCR8-overexpressing cells; competitor 6-B09
Method: as §4

Binder	% of the maximum binding [%]
B1	39
B3	44
B4	167
B5	102

biological target: T2, Human CCR8 (C-C chemokine receptor type …); experiment: flow cytometry epitope binning, tandem format, human CCR8-overexpressing cells; competitor 7-B16
Method: as §4

Binder	% of the maximum binding [%]
B1	108
B3	89
B4	88
B5	14

biological target: T2, Human CCR8 (C-C chemokine receptor type …); experiment: flow cytometry epitope binning, tandem format, human CCR8-overexpressing cells; competitor 19-O07
Method: as §4

Binder	% of the maximum binding [%]
B1	54
B3	32
B4	149
B5	28
